# Test results from article PMC8287954.
# Where “and” joins values, the source holds several entries; their conditions need not be identical. Equal entries are not always repeated.
# Legend:
# [1] = biological target: hsSMNΔ5(M263T)•Gemin2, Q16637;O14893; assay: SEC-MALS; settings: 20°C; peak concentration 0.5 µM; parent: 231 (188-454)
# hsSMNΔ5(S262I)•Gemin2 = assay: SEC-MALS; settings: 20°C; peak concentration 0.5 µM; parent: 231 (188-454)
# hsSMNΔ5(G275S)•Gemin2 = hsSMNΔ5(G275S)•Gemin2 (UniProt O14893); assay: SEC-MALS; settings: 20°C; peak concentration 0.5 µM; parent: 231 (188-454)
# hsSMNΔ5(G279C)•Gemin2 = assay: SEC-MALS; settings: 20°C; peak concentration 0.5 µM; parent: 231 (188-454)
# [2] = biological target: Sp^1–117-Hs^253–294 chimera•Gemin2 (Schizosaccharomyces pombe | human | not stated) (UniProt Q09808); assay: SEC-MALS; Superdex 200 10/300 GL, 0.5 ml/min, room temperature (20°C), 50 mM HEPES-NaOH pH 7.5, 250 mM NaCl, 5 mM DTT; self-association of the SMN•G2 unit, (SMN•G2)n
# [3] = biological target: hsSMNΔ5(L260S)•Gemin2, Q16637;O14893; assay: SEC-MALS; settings: 20°C; peak concentration 0.3 µM; parent: 231 (188-454)
# [4] = biological target: SMN (SMN•Gemin2 dimer) (Schizosaccharomyces pombe) (UniProt Q09808); settings: cited from earlier work
# [5] = biological target: hsSMNΔ5(M263R)•Gemin2, Q16637;O14893; assay: SEC-MALS; settings: 20°C; peak concentration 0.8 µM; parent: 231 (188-454)
# [6] = biological target: Ce^2–184-Sp^140–152 chimera•Gemin2 (Caenorhabditis elegans | Schizosaccharomyces pombe | not stated) (UniProt Q09808); assay: SEC-MALS; Superdex 200 10/300 GL, 0.5 ml/min, room temperature (20°C), 50 mM HEPES-NaOH pH 7.5, 250 mM NaCl, 5 mM DTT; self-association of the SMN•G2 unit, (SMN•G2)n
# [7] = biological target: hsSMNΔ5(Y272C)•Gemin2, Q16637;O14893; assay: SEC-MALS; settings: 20°C; peak concentration 0.8 µM; parent: 231 (188-454)
# hsSMNΔ5(S262G)•Gemin2 = assay: SEC-MALS; settings: 20°C; peak concentration 0.3 µM; parent: 231 (188-454)
# hsSMNΔ5(S266P)•Gemin2 = assay: SEC-MALS; settings: 20°C; peak concentration 0.2 µM; parent: 231 (188-454)
# [8] = biological target: spSMN-GCN4(IL) chimera•Gemin2 (Schizosaccharomyces pombe | S. cerevisiae) (UniProt P0CU08); assay: SEC-MALS + AUC + other: SAXS; spSMN-GCN4 fusions in complex with Gemin2; SEC-MALS, SV-AUC and SAXS named together
# hsSMNΔ5•Gemin2 complex (from UniProt O14893) M263R, sequence (Q16637 whole entry M263R, stated change not applied): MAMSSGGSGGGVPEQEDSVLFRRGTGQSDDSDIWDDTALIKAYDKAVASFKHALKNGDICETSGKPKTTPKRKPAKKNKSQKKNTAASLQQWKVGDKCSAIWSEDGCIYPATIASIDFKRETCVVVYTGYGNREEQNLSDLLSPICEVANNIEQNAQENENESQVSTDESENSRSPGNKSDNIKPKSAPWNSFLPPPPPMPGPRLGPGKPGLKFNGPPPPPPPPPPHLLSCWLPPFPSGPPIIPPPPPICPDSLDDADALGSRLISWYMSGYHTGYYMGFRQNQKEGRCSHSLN
# hsSMNΔ5•Gemin2 complex (from UniProt O14893) M263R, sequence (O14893 12-280, stated change not applied): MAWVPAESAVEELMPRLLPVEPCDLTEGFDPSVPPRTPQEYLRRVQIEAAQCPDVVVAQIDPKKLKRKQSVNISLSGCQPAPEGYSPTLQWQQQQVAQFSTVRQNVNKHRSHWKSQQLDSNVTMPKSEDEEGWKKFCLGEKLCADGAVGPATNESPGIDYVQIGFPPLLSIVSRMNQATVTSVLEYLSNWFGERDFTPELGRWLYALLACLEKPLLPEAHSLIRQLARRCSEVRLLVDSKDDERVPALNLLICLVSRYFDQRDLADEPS
# hsSMNΔ5•Gemin2 complex (from UniProt O14893) Y272C, sequence (Q16637 whole entry Y272C, stated change not applied): as the sequence (Q16637 whole entry M263R, stated change not applied) above, with R263M, Y272C counted along it
# hsSMNΔ5•Gemin2 complex (from UniProt O14893) Y272C, sequence (O14893 12-280, stated change not applied): as the sequence (O14893 12-280, stated change not applied) above
# hsSMNΔ5•Gemin2 complex (from UniProt O14893) L260S, sequence (Q16637 whole entry L260S, stated change not applied): as the sequence (Q16637 whole entry M263R, stated change not applied) above, with L260S, R263M counted along it
# hsSMNΔ5•Gemin2 complex (from UniProt O14893) L260S, sequence (O14893 12-280, stated change not applied): as the sequence (O14893 12-280, stated change not applied) above
# spSMN-GCN4(IL) chimera•Gemin2, sequence (P0CU08 whole entry, looked up, change not shown): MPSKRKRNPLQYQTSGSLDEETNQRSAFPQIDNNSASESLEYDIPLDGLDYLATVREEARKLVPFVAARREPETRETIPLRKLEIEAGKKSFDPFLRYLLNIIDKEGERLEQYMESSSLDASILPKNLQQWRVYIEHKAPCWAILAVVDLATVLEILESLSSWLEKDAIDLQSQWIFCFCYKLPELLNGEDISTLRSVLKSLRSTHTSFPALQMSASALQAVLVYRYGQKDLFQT
# SMN (SMN•Gemin2 dimer), sequence (Q09808 whole entry): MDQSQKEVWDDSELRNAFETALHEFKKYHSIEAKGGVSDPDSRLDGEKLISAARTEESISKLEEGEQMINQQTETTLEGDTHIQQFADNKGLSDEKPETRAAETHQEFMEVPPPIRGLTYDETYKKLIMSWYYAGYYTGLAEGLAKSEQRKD
# hsSMNΔ5•Gemin2 complex (from UniProt O14893) M263T, sequence (Q16637 whole entry M263T, stated change not applied): as the sequence (Q16637 whole entry M263R, stated change not applied) above, with R263T counted along it
# hsSMNΔ5•Gemin2 complex (from UniProt O14893) M263T, sequence (O14893 12-280, stated change not applied): as the sequence (O14893 12-280, stated change not applied) above
# hsSMNΔ5•Gemin2 complex (from UniProt O14893) G279C, sequence (O14893 whole entry, looked up, stated change not applied, one chain of several): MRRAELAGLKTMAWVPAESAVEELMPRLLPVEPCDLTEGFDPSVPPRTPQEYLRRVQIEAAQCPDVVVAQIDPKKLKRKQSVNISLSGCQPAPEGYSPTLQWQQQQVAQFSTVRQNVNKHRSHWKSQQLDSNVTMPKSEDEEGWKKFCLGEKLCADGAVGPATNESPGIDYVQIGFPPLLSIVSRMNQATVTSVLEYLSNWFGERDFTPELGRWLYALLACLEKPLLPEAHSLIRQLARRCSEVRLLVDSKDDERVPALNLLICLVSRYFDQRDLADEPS
# hsSMNΔ5•Gemin2 complex (from UniProt O14893) G275S, sequence (O14893 whole entry, looked up, stated change not applied, one chain of several): as above
# hsSMNΔ5(G275S)•Gemin2, sequence (O14893 whole entry, looked up, stated change not applied): as the sequence (O14893 whole entry, looked up, stated change not applied, one chain of several) above
# hsSMNΔ5•Gemin2 complex (from UniProt O14893) S266P, sequence (O14893 whole entry, looked up, stated change not applied, one chain of several): as above
# hsSMNΔ5•Gemin2 complex (from UniProt O14893) S262G, sequence (O14893 whole entry, looked up, stated change not applied, one chain of several): as above
# hsSMNΔ5•Gemin2 complex (from UniProt O14893) S262I, sequence (O14893 whole entry, looked up, stated change not applied, one chain of several): as above
substance,measurement,setting,value
hsSMNΔ5•Gemin2 complex (from UniProt O14893) M263T,other: SEC-MALS Mw,[1],115
hsSMNΔ5•Gemin2 complex (from UniProt O14893) S262I,other: SEC-MALS Mw,hsSMNΔ5(S262I)•Gemin2,306
hsSMNΔ5•Gemin2 complex (from UniProt O14893) G275S,other: SEC-MALS Mw,hsSMNΔ5(G275S)•Gemin2,58
hsSMNΔ5•Gemin2 complex (from UniProt O14893) G279C,other: SEC-MALS Mw,hsSMNΔ5(G279C)•Gemin2,586
Sp^1–117-Hs^253–294 chimera•Gemin2 (from UniProt Q09808 1-117; Q16637 253-294) (complex),stoichiometry N,[2],4 and 8
hsSMNΔ5•Gemin2 complex (from UniProt O14893) L260S,other: SEC-MALS Mw,[3],124
SMN (SMN•Gemin2 dimer) (from UniProt Q09808),Kd,[4],1000 nM
hsSMNΔ5•Gemin2 complex (from UniProt O14893) M263R,other: SEC-MALS Mw,[5],113
Ce^2–184-Sp^140–152 chimera•Gemin2 (from UniProt Q09808 140-152) (complex),stoichiometry N,[6],2
hsSMNΔ5•Gemin2 complex (from UniProt O14893) Y272C,other: SEC-MALS Mw,[7],78
hsSMNΔ5•Gemin2 complex (from UniProt O14893) S262G,other: SEC-MALS Mw,hsSMNΔ5(S262G)•Gemin2,275
hsSMNΔ5•Gemin2 complex (from UniProt O14893) S266P,other: SEC-MALS Mw,hsSMNΔ5(S266P)•Gemin2,99
spSMN-GCN4(IL) chimera•Gemin2 (from UniProt P0CU08 1-235) (complex),stoichiometry N,[8],2
